Test results reported in the Human Domainome abundance scans (Beltran et al. 2025).

B1: POU domain, class 4, transcription factor 3, residues 185 to 256; numbered along this chain, Q15319 (parent)
chain: RELEAFAERFKQRRIKLGVTQADVGAALANLKIPGVGSLSQSTICRFESLTLSHNNMIALKPVLQAWLEEAE
B2: Apoptosis-associated speck-like protein containing a CARD, residues 114 to 194; numbered along this chain, Q9ULZ3 (parent)
chain: FIDQHRAALIARVTNVEWLLDALYGKVLTDEQYQAVRAEPTNPSKMRKLFSFTPAWNWTCKDLLLQALRESQSYLVEDLER

Variants of: B1
Experiment: abundance fitness (aPCA) (normalised: wild type 0, dead -1); higher = more abundant; growth selection in yeast, the domain comes from the species named
Conditions: Homo sapiens

Abundance fitness, by site and new letter:
E69: A 0.04 | C 0.006 | D -0.039 | F -0.2 | G -0.194 | H -0.332 | I -0.106 | K -0.041 | L -0.097 | M -0.041 | N -0.06 | P -0.672 | Q -0.091 | R -0.065 | T -0.075 | V -0.046 | W -0.232 | Y -0.059
E70: A -0.098 | C -0.271 | D -0.118 | F -0.397 | G -0.095 | H -0.014 | I -0.348 | K -0.03 | L -0.323 | M -0.253 | N 0.114 | Q -0.084 | R -0.036 | S -0.034 | V -0.307 | W -0.29 | Y -0.245
A71: D -0.574 | E -0.103 | F -0.139 | G -0.226 | I -0.178 | K 0.002 | M -0.106 | N -0.032 | R -0.005 | S -0.108 | T -0.085 | V -0.073 | W -0.281 | Y -0.064
E72: A -0.31 | C -0.175 | D -0.111 | F -0.63 | G -0.278 | H -0.378 | K -0.384 | L -0.363 | M -0.36 | N -0.192 | Q -0.263 | R -0.526 | S -0.153 | T -0.219 | V -0.265 | W -0.325 | Y -0.544

Variants of: B2
Experiment: as above
Conditions: Homo sapiens

Abundance fitness: each site, then its substitutions
F1: C -1.04 | D -0.685 | E -0.745 | G -0.968 | H -0.375 | L -0.809 | M -0.661 | R -0.498 | S -0.385 | V -0.908 | Y -1
I2: W -0.619
D3: A -0.777 | C -0.822 | E -0.387 | F -0.749 | G -0.805 | H -0.616 | I -0.796 | K -0.825 | L -0.881 | N -0.599 | P -0.951 | Q -0.929 | R -0.544 | S -0.592 | T -0.907 | W -0.582 | Y -0.794
Q4: A -0.358 | C -0.43 | D -0.432 | F -0.34 | G -0.685 | H -0.315 | I -0.015 | K -0.111 | L -0.352 | M -0.161 | N -0.103 | P -1.03 | R -0.19 | T 0.117 | V -0.165 | W -0.802
H5: A -0.276 | D -0.751 | E -0.441 | F -0.553 | G -0.833 | I -0.057 | K -0.605 | L -0.071 | M -0.145 | N -0.157 | P -0.741 | Q -0.341 | R -0.743 | S -0.657 | T -0.602 | V -0.147 | W -0.381 | Y -0.316
R6: A -0.074 | C -0.752 | D -0.724 | E -0.141 | F -0.538 | G -0.501 | H -0.635 | I -0.389 | K 0.014 | L -0.362 | M -0.107 | N -0.397 | P -0.685 | Q -0.285 | S -0.385 | T -0.549 | V -0.416 | Y -0.327
A7: C -0.2 | D 0.065 | E 0.295 | F -0.652 | G -0.152 | H -0.149 | I -0.638 | K -0.035 | L -0.461 | M -0.251 | N 0.002 | P -0.437 | Q 0.045 | R -0.119 | S -0.014 | T -0.277 | V -0.249 | Y -0.54
A8: C -0.312 | E 0.2 | F -0.673 | G -0.577 | H -0.375 | I -0.225 | K -0.521 | L -0.79 | M -0.372 | N -0.558 | P -0.945 | Q -0.078 | S -0.112 | T -0.239 | V -0.424 | W -0.776 | Y -0.193
L9: A -0.901 | C -0.558 | D -0.798 | E -0.76 | F -0.763 | G -0.624 | H -0.749 | I -0.429 | K -0.948 | M -0.563 | N -0.776 | P -0.694 | Q -1.03 | R -0.925 | S -0.938 | V -0.989 | W -0.811 | Y -0.644
I10: A -0.714 | C -0.628 | D -0.658 | E -0.594 | F -0.84 | G -0.74 | H -0.769 | M -0.489 | N -0.745 | P -0.985 | Q -0.655 | R -0.631 | S -0.977 | T -0.515 | W -0.793 | Y -0.54
A11: E -0.115 | R -0.038
R12: A -0.707 | C -0.361 | D -0.666 | E -0.316 | F -0.655 | G -0.17 | H -0.219 | I -0.803 | K -0.228 | L -0.948 | M -0.628 | N -0.14 | P -0.964 | Q -0.152 | S -0.462 | T -0.746 | W -1.18 | Y -0.484
V13: A -0.039 | C 0.023 | D -0.688 | E -0.538 | F -0.495 | G -0.598 | H -0.878 | K -0.899 | L -0.632 | M -0.611 | N -0.861 | P -0.396 | Q -0.775 | R -0.851 | S -0.535 | W -0.893 | Y -0.729
T14: A -0.4 | C -0.656 | D -0.058 | E -0.004 | F -0.749 | G -0.265 | H -0.644 | I -0.541 | K -0.295 | L -0.571 | M -0.607 | N -0.206 | P -0.815 | Q -0.252 | R -0.209 | S -0.045 | W -0.864 | Y -0.54
N15: A -0.718 | C -0.718 | D -0.142 | E -0.188 | F -0.997 | G -0.604 | H -0.291 | I -0.857 | K -0.041 | L -0.796 | M -0.847 | P -0.806 | R -0.359 | T -0.518 | V -0.947 | W -0.605 | Y -0.555
V16: A -0.794 | C -0.342 | D -0.773 | E -0.928 | F -0.941 | G -0.88 | H -0.821 | I -0.464 | L -0.484 | P -0.35 | Q -0.865 | R -0.573 | S -0.846 | T -0.572 | W -0.533 | Y -1.02
E17: A -0.619 | C -0.867 | D 0.019 | F -0.97 | G -0.357 | H -0.695 | L -0.859 | M -0.49 | N -0.286 | P -0.705 | Q -0.083 | R -0.642 | S -0.536 | T -0.267 | V -0.985 | W -0.642 | Y -0.61
W18: A 0.248 | C 0.029 | D 0.18 | E 0.103 | F 0.213 | G 0.169 | I 0.061 | K 0.186 | L 0.043 | M 0 | P 0.174 | Q 0.174 | R 0.076
